According to IntAct's records for PubMed 31515488:

B1: EKC/KEOPS complex subunit TP53RK (Homo sapiens), Q96S44 (parent)
chain: MAAARATTPADGEEPAPEAEALAAARERSSRFLSGLELVKQGAEARVFRGRFQGRAAVIKHRFPKGYRHPALEARLGRRRTVQEARALLRCRRAGISAPVVFFVDYASNCLYMEEIEGSVTVRDYIQSTMETEKTPQGLSNLAKTIGQVLARMHDEDLIHGDLTTSNMLLKPPLEQLNIVLIDFGLSFISALPEDKGVDLYVLEKAFLSTHPNTETVFEAFLKSYSTSSKKARPVLKKLDEVRLRGRKRSMVG
B2: Ubiquitin-conjugating enzyme E2 E3 (Homo sapiens), Q969T4 (parent)
chain: MSSDRQRSDDESPSTSSGSSDADQRDPAAPEPEEQEERKPSATQQKKNTKLSSKTTAKLSTSAKRIQKELAEITLDPPPNCSAGPKGDNIYEWRSTILGPPGSVYEGGVFFLDITFSSDYPFKPPKVTFRTRIYHCNINSQGVICLDILKDNWSPALTISKVLLSICSLLTDCNPADPLVGSIATQYLTNRAEHDRIARQWTKRYAT
partner: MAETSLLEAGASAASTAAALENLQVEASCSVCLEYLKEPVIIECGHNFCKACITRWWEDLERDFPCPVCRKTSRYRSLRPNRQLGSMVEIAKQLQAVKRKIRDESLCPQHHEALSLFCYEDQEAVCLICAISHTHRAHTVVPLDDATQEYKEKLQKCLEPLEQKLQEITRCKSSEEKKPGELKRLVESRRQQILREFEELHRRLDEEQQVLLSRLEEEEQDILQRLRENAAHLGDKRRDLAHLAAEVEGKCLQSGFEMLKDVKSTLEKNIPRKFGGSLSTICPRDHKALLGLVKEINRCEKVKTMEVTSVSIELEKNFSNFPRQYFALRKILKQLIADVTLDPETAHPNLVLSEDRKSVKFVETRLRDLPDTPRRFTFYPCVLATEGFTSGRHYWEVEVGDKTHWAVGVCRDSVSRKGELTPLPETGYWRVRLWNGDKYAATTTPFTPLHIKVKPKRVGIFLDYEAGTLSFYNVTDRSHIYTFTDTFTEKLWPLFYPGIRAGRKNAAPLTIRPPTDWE
B3: F-box only protein 3 (Homo sapiens), Q9UK99 (parent)
chain: MAAMETETAPLTLESLPTDPLLLILSFLDYRDLINCCYVSRRLSQLSSHDPLWRRHCKKYWLISEEEKTQKNQCWKSLFIDTYSDVGRYIDHYAAIKKAWDDLKKYLEPRCPRMVLSLKEGAREEDLDAVEAQIGCKLPDDYRCSYRIHNGQKLVVPGLLGSMALSNHYRSEDLLDVDTAAGGFQQRQGLKYCLPLTFCIHTGLSQYIAVEAAEGRNKNEVFYQCPDQMARNPAAIDMFIIGATFTDWFTSYVKNVVSGGFPIIRDQIFRYVHDPECVATTGDITVSVSTSFLPELSSVHPPHYFFTYRIRIEMSKDALPEKACQLDSRYWRITNAKGDVEEVQGPGVVGEFPIISPGRVYEYTSCTTFSTTSGYMEGYYTFHFLYFKDKIFNVAIPRFHMACPTFRVSIARLEMGPDEYEEMEEEEEEEEEEDEDDDSADMDESDEDDEEERRRRVFDVPIRRRRCSRLF
B4: Docking protein 2 (Homo sapiens), O60496 (parent)
chain: MGDGAVKQGFLYLQQQQTFGKKWRRFGASLYGGSDCALARLELQEGPEKPRRCEAARKVIRLSDCLRVAEAGGEASSPRDTSAFFLETKERLYLLAAPAAERGDWVQAICLLAFPGQRKELSGPEGKQSRPCMEENELYSSAVTVGPHKEFAVTMRPTEASERCHLRGSYTLRAGESALELWGGPEPGTQLYDWPYRFLRRFGRDKVTFSFEAGRRCVSGEGNFEFETRQGNEIFLALEEAISAQKNAAPATPQPQPATIPASLPRPDSPYSRPHDSLPPPSPTTPVPAPRPRGQEGEYAVPFDAVARSLGKNFRGILAVPPQLLADPLYDSIEETLPPRPDHIYDEPEGVAALSLYDSPQEPRGEAWRRQATADRDPAGLQHVQPAGQDFSASGWQPGTEYDNVVLKKGPK
partner: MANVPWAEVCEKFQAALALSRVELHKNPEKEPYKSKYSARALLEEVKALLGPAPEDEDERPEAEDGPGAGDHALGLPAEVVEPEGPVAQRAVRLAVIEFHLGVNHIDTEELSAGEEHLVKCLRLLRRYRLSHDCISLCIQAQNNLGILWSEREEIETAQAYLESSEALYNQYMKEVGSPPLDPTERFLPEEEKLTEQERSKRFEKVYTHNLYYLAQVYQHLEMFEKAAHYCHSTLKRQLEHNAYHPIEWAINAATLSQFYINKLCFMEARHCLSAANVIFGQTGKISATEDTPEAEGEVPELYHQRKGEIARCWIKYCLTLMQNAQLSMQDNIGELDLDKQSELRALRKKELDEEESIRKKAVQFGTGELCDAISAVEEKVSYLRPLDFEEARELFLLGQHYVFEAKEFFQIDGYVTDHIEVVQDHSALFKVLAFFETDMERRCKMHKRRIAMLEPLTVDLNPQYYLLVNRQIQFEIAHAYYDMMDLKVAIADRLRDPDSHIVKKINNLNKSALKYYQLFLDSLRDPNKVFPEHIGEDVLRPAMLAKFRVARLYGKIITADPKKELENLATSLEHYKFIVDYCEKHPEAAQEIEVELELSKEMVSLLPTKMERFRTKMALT
B5: Serine/threonine-protein kinase PAK 5 (Homo sapiens), Q9P286 (parent)
chain: MFGKKKKKIEISGPSNFEHRVHTGFDPQEQKFTGLPQQWHSLLADTANRPKPMVDPSCITPIQLAPMKTIVRGNKPCKETSINGLLEDFDNISVTRSNSLRKESPPTPDQGASSHGPGHAEENGFITFSQYSSESDTTADYTTEKYREKSLYGDDLDPYYRGSHAAKQNGHVMKMKHGEAYYSEVKPLKSDFARFSADYHSHLDSLSKPSEYSDLKWEYQRASSSSPLDYSFQFTPSRTAGTSGCSKESLAYSESEWGPSLDDYDRRPKSSYLNQTSPQPTMRQRSRSGSGLQEPMMPFGASAFKTHPQGHSYNSYTYPRLSEPTMCIPKVDYDRAQMVLSPPLSGSDTYPRGPAKLPQSQSKSGYSSSSHQYPSGYHKATLYHHPSLQSSSQYISTASYLSSLSLSSSTYPPPSWGSSSDQQPSRVSHEQFRAALQLVVSPGDPREYLANFIKIGEGSTGIVCIATEKHTGKQVAVKKMDLRKQQRRELLFNEVVIMRDYHHDNVVDMYSSYLVGDELWVVMEFLEGGALTDIVTHTRMNEEQIATVCLSVLRALSYLHNQGVIHRDIKSDSILLTSDGRIKLSDFGFCAQVSKEVPKRKSLVGTPYWMAPEVISRLPYGTEVDIWSLGIMVIEMIDGEPPYFNEPPLQAMRRIRDSLPPRVKDLHKVSSVLRGFLDLMLVREPSQRATAQELLGHPFLKLAGPPSCIVPLMRQYRHH
partner: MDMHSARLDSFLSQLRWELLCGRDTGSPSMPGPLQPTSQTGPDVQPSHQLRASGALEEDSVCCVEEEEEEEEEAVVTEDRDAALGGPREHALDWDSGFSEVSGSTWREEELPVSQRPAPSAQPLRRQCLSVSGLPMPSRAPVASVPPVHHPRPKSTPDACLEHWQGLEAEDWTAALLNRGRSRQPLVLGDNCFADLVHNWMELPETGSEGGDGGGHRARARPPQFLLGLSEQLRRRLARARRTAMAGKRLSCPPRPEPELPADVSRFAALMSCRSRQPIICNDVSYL
B6: Proton-coupled zinc antiporter SLC30A2 (Homo sapiens), Q9BRI3 (parent)
chain: MEAKEKQHLLDARPAIRSYTGSLWQEGAGWIPLPRPGLDLQAIELAAQSNHHCHAQKGPDSHCDPKKGKAQRQLYVASAICLLFMIGEVVGGYLAHSLAVMTDAAHLLTDFASMLISLFSLWMSSRPATKTMNFGWQRAEILGALVSVLSIWVVTGVLVYLAVERLISGDYEIDGGTMLITSGCAVAVNIIMGLTLHQSGHGHSHGTTNQQEENPSVRAAFIHVIGDFMQSMGVLVAAYILYFKPEYKYVDPICTFVFSILVLGTTLTILRDVILVLMEGTPKGVDFTAVRDLLLSVEGVEALHSLHIWALTVAQPVLSVHIAIAQNTDAQAVLKTASSRLQGKFHFHTVTIQIEDYSEDMKDCQACQGPSD
partner: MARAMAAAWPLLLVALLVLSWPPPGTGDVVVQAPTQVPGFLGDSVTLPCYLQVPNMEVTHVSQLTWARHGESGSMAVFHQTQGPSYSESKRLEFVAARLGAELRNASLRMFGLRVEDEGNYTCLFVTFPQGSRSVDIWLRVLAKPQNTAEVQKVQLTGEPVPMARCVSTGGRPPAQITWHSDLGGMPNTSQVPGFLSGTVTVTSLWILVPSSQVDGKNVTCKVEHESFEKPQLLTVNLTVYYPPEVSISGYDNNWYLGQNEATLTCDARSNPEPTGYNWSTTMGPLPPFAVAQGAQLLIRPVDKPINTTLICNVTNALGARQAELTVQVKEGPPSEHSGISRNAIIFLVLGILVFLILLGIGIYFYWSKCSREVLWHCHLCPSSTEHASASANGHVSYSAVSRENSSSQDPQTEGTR
B7: LIM/homeobox protein Lhx4 (Homo sapiens), Q969G2 (parent)
chain: MMQSATVPAEGAVKGLPEMLGVPMQQIPQCAGCNQHILDKFILKVLDRHWHSSCLKCADCQMQLADRCFSRAGSVYCKEDFFKRFGTKCTACQQGIPPTQVVRKAQDFVYHLHCFACIICNRQLATGDEFYLMEDGRLVCKEDYETAKQNDDSEAGAKRPRTTITAKQLETLKNAYKNSPKPARHVREQLSSETGLDMRVVQVWFQNRRAKEKRLKKDAGRHRWGQFYKSVKRSRGSSKQEKESSAEDCGVSDSELSFREDQILSELGHTNRIYGNVGDVTGGQLMNGSFSMDGTGQSYQDLRDGSPYGIPQSPSSISSLPSHAPLLNGLDYTVDSNLGIIAHAGQGVSQTLRAMAGGPTSDISTGSSVGYPDFPTSPGSWLDEMDHPPF
partner: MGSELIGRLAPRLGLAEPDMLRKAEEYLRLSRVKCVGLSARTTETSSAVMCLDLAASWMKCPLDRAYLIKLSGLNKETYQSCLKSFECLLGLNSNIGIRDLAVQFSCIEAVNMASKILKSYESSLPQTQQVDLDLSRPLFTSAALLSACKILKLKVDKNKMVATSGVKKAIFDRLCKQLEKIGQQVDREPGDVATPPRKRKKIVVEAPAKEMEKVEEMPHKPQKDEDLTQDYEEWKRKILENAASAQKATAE
B8: Protein sprouty homolog 1 (Homo sapiens), O43609 (parent)
chain: MDPQNQHGSGSSLVVIQQPSLDSRQRLDYEREIQPTAILSLDQIKAIRGSNEYTEGPSVVKRPAPRTAPRQEKHERTHEIIPINVNNNYEHRHTSHLGHAVLPSNARGPILSRSTSTGSAASSGSNSSASSEQGLLGRSPPTRPVPGHRSERAIRTQPKQLIVDDLKGSLKEDLTQHKFICEQCGKCKCGECTAPRTLPSCLACNRQCLCSAESMVEYGTCMCLVKGIFYHCSNDDEGDSYSDNPCSCSQSHCCSRYLCMGAMSLFLPCLLCYPPAKGCLKLCRRCYDWIHRPGCRCKNSNTVYCKLESCPSRGQGKPS

Variants of: B1
Conditions: with ccdb1_human CCNDBP1, O95273
Sequence of ccdb1_human CCNDBP1, O95273 (O95273 whole entry): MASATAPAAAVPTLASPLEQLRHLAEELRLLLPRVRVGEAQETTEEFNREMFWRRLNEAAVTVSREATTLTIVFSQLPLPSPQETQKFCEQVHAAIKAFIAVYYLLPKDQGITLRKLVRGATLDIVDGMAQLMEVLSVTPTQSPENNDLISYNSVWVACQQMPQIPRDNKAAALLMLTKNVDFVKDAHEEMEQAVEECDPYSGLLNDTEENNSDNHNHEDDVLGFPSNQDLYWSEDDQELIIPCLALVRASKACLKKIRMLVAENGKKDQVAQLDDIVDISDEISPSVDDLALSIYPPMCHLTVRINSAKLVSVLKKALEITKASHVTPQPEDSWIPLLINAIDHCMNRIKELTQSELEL

effect of a mutation on the interaction	Variant
disrupting interaction strength	R123Q
with no effect	T8M

Variants of: B2
Conditions: with tri39_human TRIM39, Q9HCM9

effect of a mutation on the interaction	Variant
with no effect	S117T

Variants of: B3
Conditions: with skp1_human SKP1, P63208
Sequence of skp1_human SKP1, P63208 (P63208 whole entry): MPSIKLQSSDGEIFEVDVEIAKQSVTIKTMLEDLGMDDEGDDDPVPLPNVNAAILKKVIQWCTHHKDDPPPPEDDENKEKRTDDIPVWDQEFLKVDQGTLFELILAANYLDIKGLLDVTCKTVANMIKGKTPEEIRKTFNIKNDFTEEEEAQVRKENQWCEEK

effect of a mutation on the interaction	Variant
with no effect	P10S

Variants of: B4
Conditions: with kbp_human KIFBP

effect of a mutation on the interaction	Variant
disrupting interaction strength	P274L

Variants of: B5
Conditions: with inka1_human INKA1, Q96EL1

effect of a mutation on the interaction	Variant
with no effect	S511N

Variants of: B6
Conditions: with pvr_human PVR

effect of a mutation on the interaction	Variant
with no effect	T181M

Variants of: B7
Conditions: with orc6_human ORC6, Q9Y5N6

effect of a mutation on the interaction	Variant
with no effect	N328S

Variants of: B8
Conditions: with nt2na_human NOTCH2NLA

effect of a mutation on the interaction	Variant
with no effect	R296K

Variants of: B8
Conditions: with otx1_human OTX1, P32242
Sequence of otx1_human OTX1, P32242 (P32242 whole entry): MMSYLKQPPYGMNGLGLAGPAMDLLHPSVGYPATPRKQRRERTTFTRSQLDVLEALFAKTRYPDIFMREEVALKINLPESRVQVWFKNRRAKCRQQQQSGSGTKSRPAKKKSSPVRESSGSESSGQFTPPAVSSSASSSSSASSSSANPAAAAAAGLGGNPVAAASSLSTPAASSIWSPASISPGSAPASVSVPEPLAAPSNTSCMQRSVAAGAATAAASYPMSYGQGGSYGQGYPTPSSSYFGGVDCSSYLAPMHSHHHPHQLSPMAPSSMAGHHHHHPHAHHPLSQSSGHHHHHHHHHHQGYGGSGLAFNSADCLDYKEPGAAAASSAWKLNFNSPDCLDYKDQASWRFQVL

effect of a mutation on the interaction	Variant
with no effect	R296K

Variants of: B8
Conditions: with meox2_human MEOX2, P50222
Sequence of meox2_human MEOX2, P50222 (P50222 whole entry): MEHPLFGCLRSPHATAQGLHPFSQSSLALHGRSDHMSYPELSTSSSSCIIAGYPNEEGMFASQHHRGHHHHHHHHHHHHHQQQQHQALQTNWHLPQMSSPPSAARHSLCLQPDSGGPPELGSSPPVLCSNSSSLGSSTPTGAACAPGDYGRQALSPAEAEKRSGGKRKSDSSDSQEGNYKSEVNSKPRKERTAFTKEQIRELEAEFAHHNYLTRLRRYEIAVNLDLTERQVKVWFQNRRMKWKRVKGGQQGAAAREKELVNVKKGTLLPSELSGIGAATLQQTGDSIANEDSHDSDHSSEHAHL

effect of a mutation on the interaction	Variant
with no effect	R296K

Variants of: B8
Conditions: with kr101_human KRTAP10-1, P60331
Sequence of kr101_human KRTAP10-1, P60331 (P60331 whole entry): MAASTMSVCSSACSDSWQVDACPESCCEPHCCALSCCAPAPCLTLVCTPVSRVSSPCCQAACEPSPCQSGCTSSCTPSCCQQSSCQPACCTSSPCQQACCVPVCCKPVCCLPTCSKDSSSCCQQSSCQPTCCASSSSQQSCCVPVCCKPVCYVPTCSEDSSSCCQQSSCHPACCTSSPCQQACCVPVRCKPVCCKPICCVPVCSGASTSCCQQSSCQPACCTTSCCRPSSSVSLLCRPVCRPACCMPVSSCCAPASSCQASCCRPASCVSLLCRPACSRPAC

effect of a mutation on the interaction	Variant
with no effect	R296K
